Measured values taken from patent publication US20260356955 (published 2026).
Where two headings read alike, the source gives them in different places.

T1: cynomolgus KLRB1 ECD (cynomolgus)
T1 chain: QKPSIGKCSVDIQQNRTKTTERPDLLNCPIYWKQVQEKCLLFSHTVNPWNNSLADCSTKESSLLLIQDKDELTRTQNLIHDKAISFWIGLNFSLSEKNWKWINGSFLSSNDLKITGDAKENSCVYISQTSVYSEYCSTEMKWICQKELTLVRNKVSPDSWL

T2: cynomolgus KLRB1 on CHO-K1 (cynomolgus)
T2 chain: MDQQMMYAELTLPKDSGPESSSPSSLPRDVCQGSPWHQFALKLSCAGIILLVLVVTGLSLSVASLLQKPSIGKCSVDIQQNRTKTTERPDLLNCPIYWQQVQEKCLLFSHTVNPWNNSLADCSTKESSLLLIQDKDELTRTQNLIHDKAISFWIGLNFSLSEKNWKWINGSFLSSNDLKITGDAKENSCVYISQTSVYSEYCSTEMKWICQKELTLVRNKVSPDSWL

B1: Hu47A5H2-11 (antibody, V domains shown)
VH: QVQLVQSGAEVKKPGASVKVSCKASGYSFTGYWMHWVRQAPGQGLEWMGMIHPSDSETRLNQKFKDRVTMTVDKSTSTVYMELSSLRSEDTAVYYCASEGLRRGSFAYWGQGTLVTVSS
VL: DIVLTQSPDSLAVSLGERATINCRASESVDNYGMTFMSWFQQKPGQPPKLLIYAASNQGSGVPDRFSGSGSGTDFTLTISSLQAEDVAVYYCQQSKEVPYTFGQGTKLEIK
B2: Hu50A8F2-04 (antibody, V domains shown)
VH: QVQLVQSGAEVKKPGASVKVSCKASGYTFIDYYINWVRQAPGQGLEWMGWIFPGSGHTKYNENFKGRVTMTRDTSTSTVYMELSSLRSEDTAVYYCARGDRSALGYFDYWGQGTTVTVSS
VL: DIQLTQSPSSLSASVGDRVTITCTASSSVSSTYLHWYQQKPGKSPKLLIYSTSNLASGVPSRFSGSGSGTDYTLTISSLQPEDAATYYCHQYHRSPLTFGQGTKLEIK

Legend:
[1] = biological target: human KLRB1 on CHO-K1 (human); assay: FACS
[2] = biological target: T1, cynomolgus KLRB1 ECD; assay: ELISA
[3] = biological target: human KLRB1 on CHO-K1 (human); assay: competition, CLEC2D, FACS
[4] = biological target: human KLRB1 ECD (human); assay: SPR
[5] = biological target: T1, cynomolgus KLRB1 ECD; assay: SPR
[6] = biological target: T2, cynomolgus KLRB1 on CHO-K1; assay: FACS
[7] = biological target: human KLRB1 ECD (human); assay: ELISA
[8] = biological target: T1, cynomolgus KLRB1 ECD; assay: ELISA
[9] = biological target: T2, cynomolgus KLRB1 on CHO-K1; assay: FACS
[10] = biological target: human KLRB1 on CHO-K1 (human); assay: FACS; remark: listed apart in the source
[11] = biological target: human KLRB1 ECD (human); assay: ELISA; remark: listed apart in the source
[12] = biological target: human KLRB1 on CHO-K1 (human); assay: competition, CLEC2D, FACS; remark: listed apart in the source
[13] = biological target: human KLRB1 on CHO-K1 (human); assay: FACS; remark: listed apart in the source
[14] = biological target: T1, cynomolgus KLRB1 ECD; assay: ELISA
[15] = biological target: human KLRB1 ECD (human); assay: ELISA; remark: listed apart in the source
[16] = biological target: T2, cynomolgus KLRB1 on CHO-K1; assay: FACS
[17] = biological target: human KLRB1 ECD (human); assay: SPR; remark: listed apart in the source

human KLRB1 on CHO-K1 (human), sequence (chain, as listed by the source): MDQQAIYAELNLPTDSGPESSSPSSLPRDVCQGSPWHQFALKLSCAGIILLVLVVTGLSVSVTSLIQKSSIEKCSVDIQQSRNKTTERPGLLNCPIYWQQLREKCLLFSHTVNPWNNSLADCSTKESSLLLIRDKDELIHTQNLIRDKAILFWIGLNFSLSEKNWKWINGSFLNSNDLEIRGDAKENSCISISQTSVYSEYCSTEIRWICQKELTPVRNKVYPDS
human KLRB1 ECD (human), sequence (chain, as listed by the source): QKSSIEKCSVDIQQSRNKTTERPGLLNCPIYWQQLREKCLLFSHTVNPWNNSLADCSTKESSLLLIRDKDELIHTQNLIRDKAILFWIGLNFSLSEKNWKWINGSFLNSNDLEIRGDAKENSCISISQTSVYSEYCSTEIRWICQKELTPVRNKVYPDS

Row | EC50 [1] [nM] | EC50 [2] [nM] | IC50 [3] [nM] | Kd [4] [nM] | Kd [5] [nM] | EC50 [6] [nM] | EC50 [7] [nM] | EC50 [8] [nM] | EC50 [9] [nM] | EC50 [10] [nM] | EC50 [11] [nM] | IC50 [12] [nM] | EC50 [13] [nM] | binding result [14] | EC50 [15] [nM] | binding result [16] | Kd [17] [nM] | Binder
1 | 1.6 | 0.024 | 1.97 | 0.639 | 1.94 | 14.9 | 0.016 | 0.01 | ~1.77 | 3.01 | 0.0238 | 3.61 | – | – | – | – | – | B1
2 | – | – | – | – | – | – | 0.033 | – | – | 6.81 | – | – | 5.45 | no binding | 0.0201 | no binding | 0.693 | B2
